Assay results published in the supplement of paper PMC10567573.

B1: TMEM106C (parent)
chain: SEQLVNFTGKAEMGGPFSYVYFFC

Variants of: B1
Assay: protein stability index of a GFP-peptide fusion (GPS, HEK-293T) (PSI 1-6); higher = more stable
Details: c terminus: a fixed tail appended
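Also: lentivirally expressed fusions sorted by FACS into six bins by GFP to DsRed ratio, PSI derived from sequencing read proportions per bin multiplied by bin number.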

Variant | protein stability index
SEQLVNFKGKAEMGGPFSYVYFFC | 2.4
SEQLVNFLGKAEMGGPFSYVYFFC | 4.14
SEQLVNFMGKAEMGGPFSYVYFFC | 2.02
SEQLVNFNGKAEMGGPFSYVYFFC | 2.63
SEQLVNFPGKAEMGGPFSYVYFFC | 2.54
SEQLVNFQGKAEMGGPFSYVYFFC | 3.6
SEQLVNFRGKAEMGGPFSYVYFFC | 2.65
SEQLVNFSGKAEMGGPFSYVYFFC | 2.29
SEQLVNFVGKAEMGGPFSYVYFFC | 2.92
SEQLVNFWGKAEMGGPFSYVYFFC | 2.44
SEQLVNFYGKAEMGGPFSYVYFFC | 3.78
SEQLVNFTAKAEMGGPFSYVYFFC | 3.2
SEQLVNFTCKAEMGGPFSYVYFFC | 2.05
SEQLVNFTDKAEMGGPFSYVYFFC | 2.19
SEQLVNFTEKAEMGGPFSYVYFFC | 2.46
SEQLVNFTFKAEMGGPFSYVYFFC | 2.01
SEQLVNFTHKAEMGGPFSYVYFFC | 3.07
SEQLVNFTIKAEMGGPFSYVYFFC | 2.8
SEQLVNFTKKAEMGGPFSYVYFFC | 2.89
SEQLVNFTLKAEMGGPFSYVYFFC | 2.21
SEQLVNFTMKAEMGGPFSYVYFFC | 2.47
SEQLVNFTNKAEMGGPFSYVYFFC | 3.19
SEQLVNFTPKAEMGGPFSYVYFFC | 2.28
SEQLVNFTQKAEMGGPFSYVYFFC | 2.71

Variant | protein stability index
SEQLVNFTRKAEMGGPFSYVYFFC | 3.01
SEQLVNFTSKAEMGGPFSYVYFFC | 2.97
SEQLVNFTTKAEMGGPFSYVYFFC | 3.27
SEQLVNFTVKAEMGGPFSYVYFFC | 3.09
SEQLVNFTWKAEMGGPFSYVYFFC | 2.95
SEQLVNFTYKAEMGGPFSYVYFFC | 3.05
SEQLVNFTGAAEMGGPFSYVYFFC | 2.02
SEQLVNFTGCAEMGGPFSYVYFFC | 2.55
SEQLVNFTGDAEMGGPFSYVYFFC | 2.33
SEQLVNFTGEAEMGGPFSYVYFFC | 2.94
SEQLVNFTGFAEMGGPFSYVYFFC | 2.92
SEQLVNFTGGAEMGGPFSYVYFFC | 4.37
SEQLVNFTGHAEMGGPFSYVYFFC | 2.51
SEQLVNFTGIAEMGGPFSYVYFFC | 3.15
SEQLVNFTGLAEMGGPFSYVYFFC | 1.94
SEQLVNFTGMAEMGGPFSYVYFFC | 2.72
SEQLVNFTGNAEMGGPFSYVYFFC | 2.25
SEQLVNFTGPAEMGGPFSYVYFFC | 2.32
SEQLVNFTGQAEMGGPFSYVYFFC | 3.07
SEQLVNFTGRAEMGGPFSYVYFFC | 2.99
SEQLVNFTGSAEMGGPFSYVYFFC | 3.56
SEQLVNFTGTAEMGGPFSYVYFFC | 3.48
SEQLVNFTGVAEMGGPFSYVYFFC | 3.02
SEQLVNFTGWAEMGGPFSYVYFFC | 3.18

Variant | protein stability index
SEQLVNFTGYAEMGGPFSYVYFFC | 2.5
SEQLVNFTGKCEMGGPFSYVYFFC | 2
SEQLVNFTGKDEMGGPFSYVYFFC | 2.64
SEQLVNFTGKEEMGGPFSYVYFFC | 3.33
SEQLVNFTGKFEMGGPFSYVYFFC | 3.61
SEQLVNFTGKGEMGGPFSYVYFFC | 2.41
SEQLVNFTGKHEMGGPFSYVYFFC | 2.39
SEQLVNFTGKIEMGGPFSYVYFFC | 2.16
SEQLVNFTGKKEMGGPFSYVYFFC | 3.7
SEQLVNFTGKLEMGGPFSYVYFFC | 2.92
SEQLVNFTGKMEMGGPFSYVYFFC | 2.61
SEQLVNFTGKNEMGGPFSYVYFFC | 2.66
SEQLVNFTGKPEMGGPFSYVYFFC | 4.32
SEQLVNFTGKQEMGGPFSYVYFFC | 3.25
SEQLVNFTGKREMGGPFSYVYFFC | 2.14
SEQLVNFTGKSEMGGPFSYVYFFC | 2.17
SEQLVNFTGKTEMGGPFSYVYFFC | 3.55
SEQLVNFTGKVEMGGPFSYVYFFC | 3.08
SEQLVNFTGKWEMGGPFSYVYFFC | 2.75
SEQLVNFTGKYEMGGPFSYVYFFC | 2.47
SEQLVNFTGKAAMGGPFSYVYFFC | 1.37
SEQLVNFTGKACMGGPFSYVYFFC | 2.67
SEQLVNFTGKADMGGPFSYVYFFC | 2.46
SEQLVNFTGKAFMGGPFSYVYFFC | 2.67

Variant | protein stability index
SEQLVNFTGKAGMGGPFSYVYFFC | 2.96
SEQLVNFTGKAHMGGPFSYVYFFC | 3.66
SEQLVNFTGKAIMGGPFSYVYFFC | 2.98
SEQLVNFTGKAKMGGPFSYVYFFC | 4.11
SEQLVNFTGKALMGGPFSYVYFFC | 2.07
SEQLVNFTGKAMMGGPFSYVYFFC | 3.74
SEQLVNFTGKANMGGPFSYVYFFC | 2.69
SEQLVNFTGKAPMGGPFSYVYFFC | 3.12
SEQLVNFTGKAQMGGPFSYVYFFC | 4.32
SEQLVNFTGKARMGGPFSYVYFFC | 3.52
SEQLVNFTGKASMGGPFSYVYFFC | 2.79
SEQLVNFTGKATMGGPFSYVYFFC | 2.51
SEQLVNFTGKAVMGGPFSYVYFFC | 2.79
SEQLVNFTGKAWMGGPFSYVYFFC | 3.46
SEQLVNFTGKAYMGGPFSYVYFFC | 3.17
SEQLVNFTGKAEAGGPFSYVYFFC | 2.1
SEQLVNFTGKAECGGPFSYVYFFC | 2.52
SEQLVNFTGKAEDGGPFSYVYFFC | 3.13
SEQLVNFTGKAEEGGPFSYVYFFC | 1.54
SEQLVNFTGKAEFGGPFSYVYFFC | 2.15
SEQLVNFTGKAEGGGPFSYVYFFC | 2.77
SEQLVNFTGKAEHGGPFSYVYFFC | 2.64
SEQLVNFTGKAEIGGPFSYVYFFC | 3.54
SEQLVNFTGKAEKGGPFSYVYFFC | 2.34

Variant | protein stability index
SEQLVNFTGKAELGGPFSYVYFFC | 2.2
SEQLVNFTGKAENGGPFSYVYFFC | 2.69
SEQLVNFTGKAEPGGPFSYVYFFC | 2.52
SEQLVNFTGKAEQGGPFSYVYFFC | 2.02
SEQLVNFTGKAERGGPFSYVYFFC | 2.54
SEQLVNFTGKAESGGPFSYVYFFC | 2.16
SEQLVNFTGKAETGGPFSYVYFFC | 2.27
SEQLVNFTGKAEVGGPFSYVYFFC | 3.14
SEQLVNFTGKAEWGGPFSYVYFFC | 2.15
SEQLVNFTGKAEYGGPFSYVYFFC | 3.13
SEQLVNFTGKAEMAGPFSYVYFFC | 3.63
SEQLVNFTGKAEMCGPFSYVYFFC | 3.15
SEQLVNFTGKAEMDGPFSYVYFFC | 3.46
SEQLVNFTGKAEMEGPFSYVYFFC | 2.86
SEQLVNFTGKAEMFGPFSYVYFFC | 3.25
SEQLVNFTGKAEMHGPFSYVYFFC | 2.88
SEQLVNFTGKAEMIGPFSYVYFFC | 3.83
SEQLVNFTGKAEMKGPFSYVYFFC | 2.59
SEQLVNFTGKAEMLGPFSYVYFFC | 3
SEQLVNFTGKAEMMGPFSYVYFFC | 2.79
SEQLVNFTGKAEMNGPFSYVYFFC | 2.23
SEQLVNFTGKAEMPGPFSYVYFFC | 3.48
SEQLVNFTGKAEMQGPFSYVYFFC | 2.52
SEQLVNFTGKAEMRGPFSYVYFFC | 2.42

Variant | protein stability index
SEQLVNFTGKAEMSGPFSYVYFFC | 3.33
SEQLVNFTGKAEMTGPFSYVYFFC | 3.09
SEQLVNFTGKAEMVGPFSYVYFFC | 3.73
SEQLVNFTGKAEMWGPFSYVYFFC | 3.4
SEQLVNFTGKAEMYGPFSYVYFFC | 3.75
SEQLVNFTGKAEMGAPFSYVYFFC | 2.8
SEQLVNFTGKAEMGCPFSYVYFFC | 2.89
SEQLVNFTGKAEMGDPFSYVYFFC | 2.33
SEQLVNFTGKAEMGEPFSYVYFFC | 3.6
SEQLVNFTGKAEMGFPFSYVYFFC | 3.12
SEQLVNFTGKAEMGHPFSYVYFFC | 3.96
SEQLVNFTGKAEMGIPFSYVYFFC | 3.9
SEQLVNFTGKAEMGKPFSYVYFFC | 2.63
SEQLVNFTGKAEMGLPFSYVYFFC | 2.52
SEQLVNFTGKAEMGMPFSYVYFFC | 3.83
SEQLVNFTGKAEMGNPFSYVYFFC | 2.23
SEQLVNFTGKAEMGPPFSYVYFFC | 4.29
SEQLVNFTGKAEMGQPFSYVYFFC | 2.59
SEQLVNFTGKAEMGRPFSYVYFFC | 2.79
SEQLVNFTGKAEMGSPFSYVYFFC | 2.85
SEQLVNFTGKAEMGTPFSYVYFFC | 2.73
SEQLVNFTGKAEMGVPFSYVYFFC | 2.76
SEQLVNFTGKAEMGWPFSYVYFFC | 2.36
SEQLVNFTGKAEMGYPFSYVYFFC | 2.89

Variant | protein stability index
SEQLVNFTGKAEMGGAFSYVYFFC | 2.25
SEQLVNFTGKAEMGGCFSYVYFFC | 3.95
SEQLVNFTGKAEMGGDFSYVYFFC | 3.16
SEQLVNFTGKAEMGGEFSYVYFFC | 2.88
SEQLVNFTGKAEMGGFFSYVYFFC | 3.14
SEQLVNFTGKAEMGGGFSYVYFFC | 2.05
SEQLVNFTGKAEMGGHFSYVYFFC | 2.25
SEQLVNFTGKAEMGGIFSYVYFFC | 2.04
SEQLVNFTGKAEMGGKFSYVYFFC | 2.98
SEQLVNFTGKAEMGGLFSYVYFFC | 3.79
SEQLVNFTGKAEMGGMFSYVYFFC | 3.03
SEQLVNFTGKAEMGGNFSYVYFFC | 3.26
SEQLVNFTGKAEMGGQFSYVYFFC | 2.58
SEQLVNFTGKAEMGGRFSYVYFFC | 3.05
SEQLVNFTGKAEMGGSFSYVYFFC | 2.1
SEQLVNFTGKAEMGGTFSYVYFFC | 2.4
SEQLVNFTGKAEMGGVFSYVYFFC | 2.47
SEQLVNFTGKAEMGGWFSYVYFFC | 2.94
SEQLVNFTGKAEMGGYFSYVYFFC | 3.76
SEQLVNFTGKAEMGGPASYVYFFC | 2.55
SEQLVNFTGKAEMGGPCSYVYFFC | 2.79
SEQLVNFTGKAEMGGPDSYVYFFC | 1.95
SEQLVNFTGKAEMGGPESYVYFFC | 1.97
SEQLVNFTGKAEMGGPGSYVYFFC | 2.28

Variant | protein stability index
SEQLVNFTGKAEMGGPHSYVYFFC | 2.22
SEQLVNFTGKAEMGGPISYVYFFC | 2.47
SEQLVNFTGKAEMGGPKSYVYFFC | 2.42
SEQLVNFTGKAEMGGPLSYVYFFC | 3.08
SEQLVNFTGKAEMGGPMSYVYFFC | 3.54
SEQLVNFTGKAEMGGPNSYVYFFC | 2.93
SEQLVNFTGKAEMGGPPSYVYFFC | 1.84
SEQLVNFTGKAEMGGPQSYVYFFC | 2.77
SEQLVNFTGKAEMGGPRSYVYFFC | 3.07
SEQLVNFTGKAEMGGPSSYVYFFC | 2.5
SEQLVNFTGKAEMGGPTSYVYFFC | 2.41
SEQLVNFTGKAEMGGPVSYVYFFC | 2.46
SEQLVNFTGKAEMGGPWSYVYFFC | 3.31
SEQLVNFTGKAEMGGPYSYVYFFC | 2.21
SEQLVNFTGKAEMGGPFAYVYFFC | 2.29
SEQLVNFTGKAEMGGPFCYVYFFC | 2.74
SEQLVNFTGKAEMGGPFEYVYFFC | 2.23
SEQLVNFTGKAEMGGPFFYVYFFC | 3.04
SEQLVNFTGKAEMGGPFGYVYFFC | 1.88
SEQLVNFTGKAEMGGPFHYVYFFC | 2.35
